Molecular target: valosin-containing protein (VCP)/p97 (UniProt P55072 1-806, labeled with Terbium (CoraFluor), DOL 0.33, in the TR-FRET assays)
Experiment: FRET or BRET

Chain of valosin-containing protein (VCP)/p97 (P55072 whole entry): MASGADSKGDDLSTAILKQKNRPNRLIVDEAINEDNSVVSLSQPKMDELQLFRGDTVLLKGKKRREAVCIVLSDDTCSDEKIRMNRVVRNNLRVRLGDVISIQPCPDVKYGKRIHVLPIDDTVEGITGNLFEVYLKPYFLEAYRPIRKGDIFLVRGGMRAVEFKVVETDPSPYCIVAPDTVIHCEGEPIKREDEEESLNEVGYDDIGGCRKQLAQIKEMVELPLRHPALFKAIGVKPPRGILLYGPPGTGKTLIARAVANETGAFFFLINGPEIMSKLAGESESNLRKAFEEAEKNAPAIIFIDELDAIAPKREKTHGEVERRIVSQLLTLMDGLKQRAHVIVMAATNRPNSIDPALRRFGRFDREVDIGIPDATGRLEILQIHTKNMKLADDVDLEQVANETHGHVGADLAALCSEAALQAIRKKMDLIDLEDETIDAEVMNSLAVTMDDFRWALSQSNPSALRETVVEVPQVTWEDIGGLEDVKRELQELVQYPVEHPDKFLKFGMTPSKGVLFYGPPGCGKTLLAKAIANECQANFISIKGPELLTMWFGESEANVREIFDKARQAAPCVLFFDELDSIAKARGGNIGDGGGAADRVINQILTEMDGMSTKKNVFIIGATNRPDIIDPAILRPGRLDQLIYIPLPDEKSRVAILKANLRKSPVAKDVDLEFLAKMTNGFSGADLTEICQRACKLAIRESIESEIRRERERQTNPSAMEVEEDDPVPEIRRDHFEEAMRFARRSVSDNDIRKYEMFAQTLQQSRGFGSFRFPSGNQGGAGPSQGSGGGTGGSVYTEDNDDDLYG

Binder | IC50
p47 (natural protein) MAAERQEALREFVAVTGAEEDRARFFLESAGWDLQIALASFYEDGGDEDIVTISQATPSSVSRGTAPSDNRVTSFRDLIHDQDEDEEEEEGQRFYAGGSERSGQQIVGPPRKKSPNELVDDLFKGAKEHGAVAVERVTKSPGETSKPRPFAGGGYRLGAAPEEESAYVAGEKRQHSSQDVHVVLKLWKSGFSLDNGELRSYQDPSNAQFLESIRRGEVPAELRRLAHGGQVNLDMEDHRDEDFVKPKGAFKAFTGEGQKLGSTAPQVLSTSSPAQQAENEAKASSSILIDESEPTTNIQIRLADGGRLVQKFNHSHRISDIRLFIVDARPAMAATSFILMTTFPNKELADESQTLKEANLLNAVIVQRLT | 20.4 ± 2.8 nM
valosin contain protein p97/p47 interacting protein 1 (VCPIP1), wild type (enzyme, labeled with BODIPY, DOL 0.23, as the labelled partner in the TR-FRET assays; unlabeled as competitor) MSQPPPPPPPLPPPPPPPEAPQTPSSLASAAASGGLLKRRDRRILSGSCPDPKCQARLFFPASGSVSIECTECGQRHEQQQLLGVEEVTDPDVVLHNLLRNALLGVTGAPKKNTELVKVMGLSNYHCKLLSPILARYGMDKQTGRAKLLRDMNQGELFDCALLGDRAFLIEPEHVNTVGYGKDRSGSLLYLHDTLEDIKRANKSQECLIPVHVDGDGHCLVHAVSRALVGRELFWHALRENLKQHFQQHLARYQALFHDFIDAAEWEDIINECDPLFVPPEGVPLGLRNIHIFGLANVLHRPIILLDSLSGMRSSGDYSATFLPGLIPAEKCTGKDGHLNKPICIAWSSSGRNHYIPLVGIKGAALPKLPMNLLPKAWGVPQDLIKKYIKLEEDGGCVIGGDRSLQDKYLLRLVAAMEEVFMDKHGIHPSLVADVHQYFYRRTGVIGVQPEEVTAAAKKAVMDNRLHKCLLCGALSELHVPPEWLAPGGKLYNLAKSTHGQLRTDKNYSFPLNNLVCSYDSVKDVLVPDYGMSNLTACNWCHGTSVRKVRGDGSIVYLDGDRTNSRSTGGKCGCGFKHFWDGKEYDNLPEAFPITLEWGGRVVRETVYWFQYESDSSLNSNVYDVAMKLVTKHFPGEFGSEILVQKVVHTILHQTAKKNPDDYTPVNIDGAHAQRVGDVQGQESESQLPTKIILTGQKTKTLHKEELNMSKTERTIQQNITEQASVMQKRKTEKLKQEQKGQPRTVSPSTIRDGPSSAPATPTKAPYSPTTSKEKKIRITTNDGRQSMVTLKSSTTFFELQESIAREFNIPPYLQCIRYGFPPKELMPPQAGMEKEPVPLQHGDRITIEILKSKAEGGQSAAAHSAHTVKQEDIAVTGKLSSKELQEQAEKEMYSLCLLATLMGEDVWSYAKGLPHMFQQGGVFYSIMKKTMGMADGKHCTFPHLPGKTFVYNASEDRLELCVDAAGHFPIGPDVEDLVKEAVSQVRAEATTRSRESSPSHGLLKLGSGGVVKKKSEQLHNVTAFQGKGHSLGTASGNPHLDPRARETSVVRKHNTGTDFSNSSTKTEPSVFTASSSNSELIRIAPGVVTMRDGRQLDPDLVEAQRKKLQEMVSSIQASMDRHLRDQSTEQSPSDLPQRKTEVVSSSAKSGSLQTGLPESFPLTGGTENLNTETTDGCVADALGAAFATRSKAQRGNSVEELEEMDSQDAEMTNTTEPMDHS | 74.5 ± 13.9 nM

— paper doi:10.1101/2024.10.01.616120 (bioRxiv, 2024)
